Assay results reported in the supplement of paper PMC9112550, “Optimization of the antimicrobial peptide Bac7 by deep mutational scanning” (BMC Biology, 2022).

Test system: Escherichia coli TOP10
Experiment: shrunken log2 fold change of peptide-encoding DNA abundance (4.5 h post-induction vs induction); higher = less antimicrobial activity (less host growth inhibition)
Conditions: time post-induction: 4.5 h; library: site-saturation at positions 5, 18, 19, 20
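Also: peptides expressed intracellularly from a pBAD plasmid library in pooled LB shake-flask culture, induced with 0.3% L-arabinose, DNA abundance read by NGS, three biological replicates, DESeq2 with apeglm shrinkage.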

| Sequence | shrunken log2 fold change |
| --- | --- |
| RRIRSRPPRLPRPRPRPKYTPRP | -0.518 |
| RRIRRRPPRLPRPRPRPMFMPRP | -0.192 |
| RRIRARPPRLPRPRPRPMWQPRP | -0.00908 |
| RRIRCRPPRLPRPRPRPSSVPRP | -0.548 |
| RRIRSRPPRLPRPRPRPYIPPRP | -1.28 |
| RRIRDRPPRLPRPRPRPTKPPRP | -0.23 |
| RRIRPRPPRLPRPRPRPKRPPRP | 0.465 |
| RRIRYRPPRLPRPRPRPMWVPRP | -0.0664 |
| RRIRKRPPRLPRPRPRPFDIPRP | -0.0132 |
| RRIRIRPPRLPRPRPRPDCYPRP | -0.226 |
| RRIRCRPPRLPRPRPRPKQDPRP | 0.0895 |
| RRIRIRPPRLPRPRPRPFCQPRP | -0.412 |
| RRIRTRPPRLPRPRPRPSNAPRP | -0.424 |
| RRIRDRPPRLPRPRPRPIMRPRP | 0.225 |
| RRIRWRPPRLPRPRPRPDRDPRP | 0.0716 |
| RRIRERPPRLPRPRPRPWDDPRP | -0.0464 |
| RRIRTRPPRLPRPRPRPPINPRP | -0.338 |
| RRIRRRPPRLPRPRPRPSFAPRP | 0.492 |
| RRIRYRPPRLPRPRPRPNTHPRP | -1.02 |
| RRIRGRPPRLPRPRPRPIMDPRP | 0.0794 |
| RRIRCRPPRLPRPRPRPCMGPRP | -0.241 |
| RRIRFRPPRLPRPRPRPWINPRP | -0.0461 |
| RRIRKRPPRLPRPRPRPYMNPRP | -0.505 |

| Sequence | shrunken log2 fold change |
| --- | --- |
| RRIRARPPRLPRPRPRPDTCPRP | -0.162 |
| RRIRIRPPRLPRPRPRPSVAPRP | 0.011 |
| RRIRRRPPRLPRPRPRPDGRPRP | 0.0193 |
| RRIRHRPPRLPRPRPRPRFNPRP | -0.316 |
| RRIRDRPPRLPRPRPRPDFWPRP | 0.596 |
| RRIRHRPPRLPRPRPRPIYLPRP | -0.211 |
| RRIRVRPPRLPRPRPRPVNVPRP | -0.411 |
| RRIRGRPPRLPRPRPRPYHFPRP | -0.041 |
| RRIRARPPRLPRPRPRPYEPPRP | 0.116 |
| RRIRFRPPRLPRPRPRPACHPRP | -0.0466 |
| RRIRDRPPRLPRPRPRPDRHPRP | -0.278 |
| RRIRFRPPRLPRPRPRPTECPRP | -0.0986 |
| RRIRARPPRLPRPRPRPNSHPRP | -0.248 |
| RRIRRRPPRLPRPRPRPESAPRP | 0.493 |
| RRIRRRPPRLPRPRPRPDEAPRP | 0.376 |
| RRIRPRPPRLPRPRPRPISNPRP | -0.408 |
| RRIRSRPPRLPRPRPRPPSTPRP | 0.141 |
| RRIRLRPPRLPRPRPRPMVPPRP | 0.096 |
| RRIRWRPPRLPRPRPRPMKGPRP | -0.363 |
| RRIRNRPPRLPRPRPRPFADPRP | 0.0675 |
| RRIRERPPRLPRPRPRPQKGPRP | -0.213 |
| RRIRRRPPRLPRPRPRPQANPRP | 0.118 |
| RRIRNRPPRLPRPRPRPNNFPRP | -0.447 |

| Sequence | shrunken log2 fold change |
| --- | --- |
| RRIRGRPPRLPRPRPRPELHPRP | 1.04 |
| RRIRIRPPRLPRPRPRPHQPPRP | -0.421 |
| RRIRCRPPRLPRPRPRPDCAPRP | 0.515 |
| RRIRHRPPRLPRPRPRPYWTPRP | 0.0019 |
| RRIRIRPPRLPRPRPRPLERPRP | 0.0105 |
| RRIRCRPPRLPRPRPRPRWEPRP | 0.342 |
| RRIRARPPRLPRPRPRPIKFPRP | -0.126 |
| RRIRFRPPRLPRPRPRPQNYPRP | -0.502 |
| RRIRWRPPRLPRPRPRPDRSPRP | 0.0405 |
| RRIRRRPPRLPRPRPRPAMRPRP | 0.538 |
| RRIRHRPPRLPRPRPRPPFNPRP | -0.256 |
| RRIRCRPPRLPRPRPRPDRGPRP | 0.0229 |
| RRIRKRPPRLPRPRPRPETIPRP | 0.0906 |
| RRIRHRPPRLPRPRPRPKITPRP | -0.913 |
| RRIRNRPPRLPRPRPRPRCTPRP | -0.263 |
| RRIRYRPPRLPRPRPRPIFYPRP | -0.638 |
| RRIRVRPPRLPRPRPRPPAAPRP | 0.397 |
| RRIRVRPPRLPRPRPRPWVEPRP | -0.0944 |
| RRIRNRPPRLPRPRPRPMWCPRP | -0.0647 |
| RRIRSRPPRLPRPRPRPKAPPRP | 0.184 |
| RRIRKRPPRLPRPRPRPTNCPRP | 0.0303 |
| RRIRDRPPRLPRPRPRPSRDPRP | 0.00173 |
| RRIRKRPPRLPRPRPRPNYMPRP | -0.117 |

| Sequence | shrunken log2 fold change |
| --- | --- |
| RRIRIRPPRLPRPRPRPHWFPRP | 0.022 |
| RRIRRRPPRLPRPRPRPLYNPRP | -0.295 |
| RRIRARPPRLPRPRPRPKEGPRP | -0.00115 |
| RRIRCRPPRLPRPRPRPPTFPRP | -0.331 |
| RRIRWRPPRLPRPRPRPSSCPRP | -0.0941 |
| RRIRVRPPRLPRPRPRPCIGPRP | -0.8 |
| RRIRKRPPRLPRPRPRPYCTPRP | -0.19 |
| RRIRNRPPRLPRPRPRPNNHPRP | -0.741 |
| RRIRPRPPRLPRPRPRPTQIPRP | 0.13 |
| RRIRIRPPRLPRPRPRPDRAPRP | -0.169 |
| RRIRCRPPRLPRPRPRPIVHPRP | -0.7 |
| RRIRKRPPRLPRPRPRPFTVPRP | -0.00947 |
| RRIRNRPPRLPRPRPRPEDIPRP | -0.194 |
| RRIRWRPPRLPRPRPRPHSAPRP | -0.0726 |
| RRIRTRPPRLPRPRPRPLVGPRP | 0.131 |
| RRIRRRPPRLPRPRPRPKGGPRP | 0.183 |
| RRIRPRPPRLPRPRPRPHSQPRP | -0.134 |
| RRIRYRPPRLPRPRPRPEIKPRP | -0.114 |
| RRIRKRPPRLPRPRPRPKAKPRP | 0.0663 |
| RRIRSRPPRLPRPRPRPYKAPRP | -0.0488 |
| RRIRMRPPRLPRPRPRPCWNPRP | 0.236 |
| RRIRGRPPRLPRPRPRPANMPRP | -0.139 |
